Assays:
[1] = biological target: asialofetuin (ASF) (bovine (from fetal calf serum)) (UniProt P12763); assay: ELISA; ASF (5 µg/mL, 200 µL/well) adsorbed on Maxisorp plates; IMAC-purified galectin 0-30 µM in PBS, 1 h; peroxidase-conjugated anti-His6 antibody, TMB; apparent KD, one-site saturation fit; binding efficiency = Bmax/KD
[2] = biological target: asialofetuin (ASF) (bovine (from fetal calf serum)) (UniProt P12763); assay: affinity chromatography on glycoprotein-Sepharose column; ASF or fetuin coupled to CNBr-activated Sepharose 4 Fast Flow (1 mL column); 0.2 µmol of galectin IMAC eluate applied, 15 min incubation, PBS pH 7.5, washed with 10 column volumes, eluted with a 0-0.3 M lactose gradient; eluted amount by Bradford assay; repeated three times
[3] = biological target: fetuin (bovine (from fetal calf serum)) (UniProt P12763); assay: as above
Chain of fetuin (bovine (from fetal calf serum)) (P12763 19-359): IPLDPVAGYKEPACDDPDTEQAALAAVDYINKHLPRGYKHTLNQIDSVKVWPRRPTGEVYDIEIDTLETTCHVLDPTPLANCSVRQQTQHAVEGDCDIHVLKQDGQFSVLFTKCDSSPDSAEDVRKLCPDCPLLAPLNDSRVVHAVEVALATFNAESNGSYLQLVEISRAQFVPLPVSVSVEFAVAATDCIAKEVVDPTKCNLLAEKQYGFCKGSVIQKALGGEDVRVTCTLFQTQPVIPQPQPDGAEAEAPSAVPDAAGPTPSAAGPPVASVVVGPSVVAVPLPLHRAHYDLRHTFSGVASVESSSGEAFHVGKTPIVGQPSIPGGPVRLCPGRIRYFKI

[4] = biological target: laminin (from Engelbreth-Holm-Swarm sarcoma) (not stated (Engelbreth-Holm-Swarm sarcoma; detected with an anti-mouse-laminin antibody)); assay: ELISA; laminin, fibronectin or collagen IV (5 µg/mL, 100 µL/well) adsorbed on Maxisorp plates; galectin 0-10 µM, 1 h; peroxidase-conjugated anti-His6 antibody, TMB; apparent KD, one-site saturation fit
[5] = biological target: fibronectin (from human plasma) (human) (UniProt P02751); assay: as above
[6] = biological target: collagen IV (from human placenta) (human); assay: as above
Chain of collagen IV (from human placenta) (human) (P02462 173-1669, chain 1 of 2): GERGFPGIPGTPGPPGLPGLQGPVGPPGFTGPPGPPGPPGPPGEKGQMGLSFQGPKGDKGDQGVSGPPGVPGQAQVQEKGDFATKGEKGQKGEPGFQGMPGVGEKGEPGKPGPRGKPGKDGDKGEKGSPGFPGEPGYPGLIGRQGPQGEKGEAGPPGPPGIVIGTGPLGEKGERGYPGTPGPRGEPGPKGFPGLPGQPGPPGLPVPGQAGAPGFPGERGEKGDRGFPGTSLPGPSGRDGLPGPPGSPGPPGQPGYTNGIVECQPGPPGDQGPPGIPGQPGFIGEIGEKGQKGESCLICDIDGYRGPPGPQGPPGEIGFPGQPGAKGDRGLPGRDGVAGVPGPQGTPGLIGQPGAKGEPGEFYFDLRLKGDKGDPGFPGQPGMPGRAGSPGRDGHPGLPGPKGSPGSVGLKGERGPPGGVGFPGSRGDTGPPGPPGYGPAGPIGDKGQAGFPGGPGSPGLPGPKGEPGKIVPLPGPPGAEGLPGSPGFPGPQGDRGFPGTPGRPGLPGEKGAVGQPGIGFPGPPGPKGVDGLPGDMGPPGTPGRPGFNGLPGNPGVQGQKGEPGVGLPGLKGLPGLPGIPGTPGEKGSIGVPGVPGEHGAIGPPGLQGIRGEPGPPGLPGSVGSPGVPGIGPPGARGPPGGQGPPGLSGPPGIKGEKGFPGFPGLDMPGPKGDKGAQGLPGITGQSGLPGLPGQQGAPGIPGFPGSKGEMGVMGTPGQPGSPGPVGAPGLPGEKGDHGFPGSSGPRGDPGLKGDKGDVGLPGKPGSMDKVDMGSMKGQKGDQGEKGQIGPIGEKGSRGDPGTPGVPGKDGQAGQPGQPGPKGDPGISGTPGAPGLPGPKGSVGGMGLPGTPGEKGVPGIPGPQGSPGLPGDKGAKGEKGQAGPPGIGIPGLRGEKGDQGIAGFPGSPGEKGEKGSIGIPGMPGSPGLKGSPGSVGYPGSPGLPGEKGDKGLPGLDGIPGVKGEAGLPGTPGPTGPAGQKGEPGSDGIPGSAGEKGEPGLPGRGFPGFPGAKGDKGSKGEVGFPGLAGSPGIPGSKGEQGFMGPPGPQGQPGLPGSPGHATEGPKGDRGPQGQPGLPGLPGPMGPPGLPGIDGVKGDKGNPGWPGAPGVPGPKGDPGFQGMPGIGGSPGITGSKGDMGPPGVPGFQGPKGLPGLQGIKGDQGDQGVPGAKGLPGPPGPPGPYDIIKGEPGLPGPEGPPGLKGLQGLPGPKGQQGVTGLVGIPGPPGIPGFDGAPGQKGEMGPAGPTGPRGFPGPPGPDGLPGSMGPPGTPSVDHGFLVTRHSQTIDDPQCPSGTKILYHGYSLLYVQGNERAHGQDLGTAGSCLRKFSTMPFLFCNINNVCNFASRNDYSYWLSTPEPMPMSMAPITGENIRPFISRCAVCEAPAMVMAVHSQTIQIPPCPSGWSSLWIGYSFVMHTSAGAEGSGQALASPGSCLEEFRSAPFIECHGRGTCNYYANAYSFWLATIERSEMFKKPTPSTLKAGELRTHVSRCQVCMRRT
Chain of collagen IV (from human placenta) (human) (P08572 184-1712, chain 2 of 2, further chain): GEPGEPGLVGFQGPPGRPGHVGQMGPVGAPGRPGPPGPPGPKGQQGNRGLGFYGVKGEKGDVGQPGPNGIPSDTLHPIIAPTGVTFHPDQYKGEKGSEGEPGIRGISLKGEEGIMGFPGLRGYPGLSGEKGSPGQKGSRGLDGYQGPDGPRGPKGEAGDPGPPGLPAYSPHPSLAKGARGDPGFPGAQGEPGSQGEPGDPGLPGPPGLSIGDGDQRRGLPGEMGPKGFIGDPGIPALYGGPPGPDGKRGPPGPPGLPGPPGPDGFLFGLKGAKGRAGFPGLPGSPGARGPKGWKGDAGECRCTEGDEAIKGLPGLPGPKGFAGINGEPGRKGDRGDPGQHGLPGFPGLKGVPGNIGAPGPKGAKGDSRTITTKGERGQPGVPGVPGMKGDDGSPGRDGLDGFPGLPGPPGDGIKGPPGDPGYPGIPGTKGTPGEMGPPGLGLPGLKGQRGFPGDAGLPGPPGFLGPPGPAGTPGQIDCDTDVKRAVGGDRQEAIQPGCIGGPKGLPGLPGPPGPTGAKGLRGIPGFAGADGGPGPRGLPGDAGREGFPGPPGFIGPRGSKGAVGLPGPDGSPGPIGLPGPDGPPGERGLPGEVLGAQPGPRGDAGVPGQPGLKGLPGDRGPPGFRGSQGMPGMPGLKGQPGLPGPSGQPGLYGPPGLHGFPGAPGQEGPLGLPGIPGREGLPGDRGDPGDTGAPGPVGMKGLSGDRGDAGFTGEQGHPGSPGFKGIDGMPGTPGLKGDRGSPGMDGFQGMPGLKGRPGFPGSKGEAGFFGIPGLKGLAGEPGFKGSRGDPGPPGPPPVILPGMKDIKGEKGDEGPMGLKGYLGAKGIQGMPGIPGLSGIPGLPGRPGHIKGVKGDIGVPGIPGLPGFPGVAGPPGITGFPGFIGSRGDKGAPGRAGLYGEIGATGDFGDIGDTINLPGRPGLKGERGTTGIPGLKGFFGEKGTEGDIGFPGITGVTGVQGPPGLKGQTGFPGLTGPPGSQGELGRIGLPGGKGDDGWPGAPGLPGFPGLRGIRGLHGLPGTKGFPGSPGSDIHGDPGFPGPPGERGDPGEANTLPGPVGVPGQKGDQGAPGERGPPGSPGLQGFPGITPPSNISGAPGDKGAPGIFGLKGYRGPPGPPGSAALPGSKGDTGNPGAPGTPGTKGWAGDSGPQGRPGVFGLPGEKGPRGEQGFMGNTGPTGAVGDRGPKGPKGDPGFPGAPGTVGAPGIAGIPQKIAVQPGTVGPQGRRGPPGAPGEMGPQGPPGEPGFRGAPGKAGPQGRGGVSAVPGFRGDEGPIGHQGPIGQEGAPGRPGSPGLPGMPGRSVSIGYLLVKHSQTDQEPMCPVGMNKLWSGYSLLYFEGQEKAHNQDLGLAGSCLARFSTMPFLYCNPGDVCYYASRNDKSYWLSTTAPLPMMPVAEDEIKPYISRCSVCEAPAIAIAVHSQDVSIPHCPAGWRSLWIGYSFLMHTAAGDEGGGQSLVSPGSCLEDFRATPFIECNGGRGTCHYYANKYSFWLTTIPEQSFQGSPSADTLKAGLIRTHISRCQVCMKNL

[7] = biological target: HGal-3 (His6-Gal-3) (human) (UniProt P17931); assay: ELISA; crosslinking assay: ASF adsorbed on Maxisorp plates, saturating galectin (50 µM Gal-1C2S, 25 µM Gal-3, 40 µM Gal-8N) bound for 1 h at room temperature, then laminin, fibronectin or collagen IV 0-50 µM for 1 h; detected with anti-ECM-protein antibodies and peroxidase-conjugated secondary antibodies; apparent KD, one-site saturation fit
[8] = biological target: HSYGal-3 (His6-SNAP-yellow fluorescent protein-Gal-3) (human) (UniProt P17931); assay: as above
[9] = biological target: HSDsRedMGal-1C2S (His6-SNAP-DsRedM-Gal-1C2S) (human) (UniProt P09382); assay: as above
[10] = biological target: HSeGFPGal-8N (His6-SNAP-eGFP-Gal-8N) (human) (UniProt O00214); assay: as above
Chain of HSeGFPGal-8N (His6-SNAP-eGFP-Gal-8N) (human) (O00214 1-160): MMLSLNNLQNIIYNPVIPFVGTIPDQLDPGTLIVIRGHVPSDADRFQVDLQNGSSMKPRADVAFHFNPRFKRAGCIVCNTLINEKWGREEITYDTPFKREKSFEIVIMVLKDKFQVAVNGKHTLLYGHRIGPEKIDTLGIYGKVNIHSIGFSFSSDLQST

[11] = biological target: HGal-1C2S (His6-Gal-1 C2S) (human) (UniProt P09382); assay: as above
[12] = biological target: HGal-8N (His6-Gal-8N, N-terminal domain of galectin-8) (human) (UniProt O00214); assay: as above
Chain of HGal-8N (His6-Gal-8N, N-terminal domain of galectin-8) (human) (O00214 1-160): as above

Chain of asialofetuin (ASF) (bovine (from fetal calf serum)) (P12763 19-359): as the sequence (P12763 19-359) above
Chain of HGal-8N (His6-Gal-8N, N-terminal domain of galectin-8) (O00214 1-160): as the sequence (O00214 1-160) above
Chain of HSeGFPGal-8N (His6-SNAP-eGFP-Gal-8N) (O00214 1-160): as above

Row | Substance | Kd [1] [nM] | apparent binding efficiency (Bmax/KD) [1] [µM⁻¹] | Kd [4] [nM] | Kd [5] [nM] | further results
1 | HDsRedMGal-1C2S (His6-DsRedM-Gal-1C2S, without SNAP-tag) (from UniProt P09382 1-135) (natural protein) | 8800 | 0.1 | – | – | –
2 | HGal-1C2S (His6-Gal-1 C2S) (from UniProt P09382 1-135) (natural protein) | 500 | 1.6 | 420 | 1970 | percent of applied galectin bound and eluted [2]: 70%; percent of applied galectin bound and eluted [3]: 30%; Kd [6]: 1340 nM
3 | HGal-3 (His6-Gal-3) (from UniProt P17931 1-250) (natural protein) | – | – | 130 | 430 | –
4 | HGal-8C (His6-Gal-8C, C-terminal domain of galectin-8) (from UniProt O00214 182-317) (domain or fragment) | – | – | – | – | percent of applied galectin bound and eluted [2]: 3%
5 | HGal-8N (His6-Gal-8N, N-terminal domain of galectin-8) (from UniProt O00214 1-160) (domain or fragment) | – | – | 180 | 520 | –
6 | HSDsRedMGal-1C2S (His6-SNAP-DsRedM-Gal-1C2S) (from UniProt P09382 1-135) (natural protein) | 600 | 1.4 | 110 | 110 | percent of applied galectin bound and eluted [2]: 4%; Kd [6]: 140 nM
7 | HSGal-1C2S (His6-SNAP-Gal-1C2S, without fluorescent protein) (from UniProt P09382 1-135) (natural protein) | 800 | 1.1 | – | – | –
8 | HSYGal-3 (His6-SNAP-yellow fluorescent protein-Gal-3) (from UniProt P17931 1-250) (natural protein) | – | – | 70 | 110 | –
9 | HSeGFPGal-8N (His6-SNAP-eGFP-Gal-8N) (from UniProt O00214 1-160) (domain or fragment) | – | – | 40 | 60 | –
10 | fibronectin (from human plasma) (from UniProt P02751 32-2477) (natural protein) | – | – | – | – | Kd [7]: 5100 nM; Kd [8]: 10000 nM
11 | laminin (from Engelbreth-Holm-Swarm sarcoma) (complex) | – | – | – | – | Kd [9]: 370 nM; Kd [7]: 270 nM; Kd [10]: 270 nM; Kd [11]: 380 nM; Kd [12]: 69500 nM; Kd [8]: 450 nM

— paper PMC9919667
